In EP1222208B1 (THE GENERAL HOSPITAL CORPORATION, dated 2008):
Values joined by “and” are separate entries in the source; they are usually repeats but may differ in a detail not shown here. Equal entries are not always repeated. Square brackets hold non-standard residues; d marks the D form. Ends that are not written are not given here. Nle = CCCC[C@H](N)C(=O)O

T1: human PTH-1 receptor (human, UniProt Q03431 27-593)
T1 sequence (looked up): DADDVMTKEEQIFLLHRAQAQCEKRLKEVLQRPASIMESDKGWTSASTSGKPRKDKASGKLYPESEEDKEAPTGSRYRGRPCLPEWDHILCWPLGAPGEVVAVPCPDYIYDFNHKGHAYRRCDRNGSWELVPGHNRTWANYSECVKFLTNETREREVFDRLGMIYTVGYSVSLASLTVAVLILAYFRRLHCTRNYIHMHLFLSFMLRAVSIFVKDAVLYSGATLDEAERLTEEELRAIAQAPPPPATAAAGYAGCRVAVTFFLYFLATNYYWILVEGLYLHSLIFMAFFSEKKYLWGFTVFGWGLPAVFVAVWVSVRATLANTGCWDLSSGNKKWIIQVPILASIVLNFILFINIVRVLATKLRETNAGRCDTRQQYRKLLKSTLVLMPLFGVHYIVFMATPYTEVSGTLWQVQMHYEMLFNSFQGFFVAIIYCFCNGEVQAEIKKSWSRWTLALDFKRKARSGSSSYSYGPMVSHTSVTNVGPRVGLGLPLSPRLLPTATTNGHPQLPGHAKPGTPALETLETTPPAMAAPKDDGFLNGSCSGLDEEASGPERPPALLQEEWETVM

T2: rat PTH-1 receptor (rat, UniProt P25961 27-591)
T2 sequence (looked up): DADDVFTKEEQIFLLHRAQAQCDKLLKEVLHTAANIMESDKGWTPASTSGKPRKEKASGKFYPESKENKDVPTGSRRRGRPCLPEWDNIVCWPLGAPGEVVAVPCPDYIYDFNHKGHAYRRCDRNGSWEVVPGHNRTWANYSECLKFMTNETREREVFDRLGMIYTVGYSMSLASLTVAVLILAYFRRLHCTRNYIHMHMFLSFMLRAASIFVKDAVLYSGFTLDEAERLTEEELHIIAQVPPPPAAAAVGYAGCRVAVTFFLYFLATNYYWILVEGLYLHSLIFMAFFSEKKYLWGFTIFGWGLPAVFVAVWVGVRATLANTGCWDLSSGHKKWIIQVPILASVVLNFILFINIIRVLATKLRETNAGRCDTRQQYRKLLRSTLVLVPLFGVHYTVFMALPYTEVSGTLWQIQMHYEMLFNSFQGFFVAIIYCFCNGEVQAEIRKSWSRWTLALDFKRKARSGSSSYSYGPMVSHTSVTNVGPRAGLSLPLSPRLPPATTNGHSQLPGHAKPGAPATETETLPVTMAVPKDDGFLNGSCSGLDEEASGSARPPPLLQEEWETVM


What was measured:
Assay in all cases: cell-based or functional assay
[1] = target: T1, human PTH-1 receptor
[2] = target: T1, human PTH-1 receptor; remark: listed apart in the source
[3] = target: human PTH-2 receptor (human, UniProt P49190 25-550)
Chain of human PTH-2 receptor (P49190 25-550): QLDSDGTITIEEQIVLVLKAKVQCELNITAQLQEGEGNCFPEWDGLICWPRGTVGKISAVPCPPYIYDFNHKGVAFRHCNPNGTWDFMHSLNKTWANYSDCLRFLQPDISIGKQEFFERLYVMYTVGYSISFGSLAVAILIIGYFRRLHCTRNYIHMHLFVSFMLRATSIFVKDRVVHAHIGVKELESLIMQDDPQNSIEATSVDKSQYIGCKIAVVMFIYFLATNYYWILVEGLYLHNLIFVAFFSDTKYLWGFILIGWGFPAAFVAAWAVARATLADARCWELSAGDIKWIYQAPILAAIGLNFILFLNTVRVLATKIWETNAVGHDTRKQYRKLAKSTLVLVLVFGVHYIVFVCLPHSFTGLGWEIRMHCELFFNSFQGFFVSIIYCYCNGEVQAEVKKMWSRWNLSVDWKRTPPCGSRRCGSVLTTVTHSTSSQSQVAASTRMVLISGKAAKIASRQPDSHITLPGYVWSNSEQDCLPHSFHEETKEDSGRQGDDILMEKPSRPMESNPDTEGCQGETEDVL

[4] = target: T1, human PTH-1 receptor; remark: listed apart in the source
[5] = target: truncated human PTH-1 receptor hΔNt (human), Q03431
[6] = target: T1, human PTH-1 receptor; remark: listed apart in the source
[7] = target: T2, rat PTH-1 receptor

Row | Binder | cAMP potency relative to native PTH(1-14), LLC-PK1 cells stably expressing the hPTH-1 receptor [1] | cAMP potency relative to native PTH(1-14), LLC-PK-1 cells stably expressing the hPTH-1 receptor [1] | cAMP EC50, HKRK-B7 cells [2] | cAMP EC50, LLC-P2R-22 cells [3] | cAMP EC50, COS-7 cells, WT hPTH-1 receptor [4] | cAMP Emax, COS-7 cells, WT hPTH-1 receptor [4] | cAMP Emax, COS-7 cells, hDeINt (picomole/well) [5] | cAMP potency relative to native PTH(1-14), truncated hPTH-1 receptor [5] | cAMP EC50, SAOS-2 cells [6] | cAMP EC50, ROS 17/2.8 cells [7]
1 | AVAEIQLMHARAKH-NH2 [[A3,A10,R11,A12]rPTH(1-14)amide] | 160 fold | 100 fold | -6.1 Log M and 0.83 µM | -3.9 Log M and 126 µM | -6 Log M and 4.66 µM | 243 picomole/well | 250 | 100 fold | – | –
2 | AVSEIQL[Nle]HNLGKHLASVER[Nle]QWLRKKLQDVHNY-NH2 [[Nle^8,21,Tyr^34]-rPTH(1-34)NH2] | – | – | -8.6 Log M and 0.0033 µM | -8.4 Log M and 0.0044 µM | -9.2 Log M and 0.0007 µM | 226 picomole/well | 243 | – | – | –
3 | AVSEIQLMHNLGKH-NH2 [native rat (r)PTH(1-14)NH2] | – | – | -3.9 Log M and 133 µM | – | -3.8 Log M and 152 µM | 221 picomole/well | 222 | – | – | –
4 | SVSEIQLMHNLGKHLNSMERVEWLRKKLQDVHNY-NH2 [[Tyr^34]human (h)PTH(1-34)NH2] | – | – | -8.4 Log M and 0.004 µM | – | -9.3 Log M and 0.0005 µM | 226 picomole/well | 238 | – | -9.28 Log M and 0.00052 µM | –
5 | AVAEIQLMHQRAKH-NH2 [[A3,Q10,R11,A12]rPTH(1-14)] | – | – | -6.1 Log M and 0.8 µM | – | – | – | – | – | – | –
6 | AVAEIQLMHARA-NH2 [[A3,A10,R11,A12]rPTH(1-12)] | – | – | -5 Log M and 10.2 µM | -3.5 Log M and 342 µM | – | – | – | – | – | –
7 | AVAEIQLMHAR-NH2 [[A3,A10,R11]rPTH(1-11)] | – | – | -4.8 Log M and 17.1 µM | – | -4.6 Log M and 29.1 µM | 238 picomole/well | 243 | – | – | –
8 | AVAEIQLMHARAKW-NH2 [[A3,A10,R11,A12,W14]rPTH(1-14)amide] | 220 fold | – | -6.3 Log M and 0.6 µM | – | – | – | – | – | – | -5.5 Log M
9 | AVAEIQLMHARAK-NH2 [[A3,A10,R11,A12]rPTH(1-13)] | – | – | -5.6 Log M and 2.4 µM | -4 Log M and 106 µM | – | – | – | – | – | –
